This is an account of results in US20080305122A1.

For test [1], the target named is PGCC(95-104) epitope peptide (Ac-…-NH2), pigeon cytochrome C (pigeon). In words: ELISA, coated PGCC(95-104) peptide, control mouse serum, anti-mouse IgG1 or IgG2a detection. For orientation: An ELISA detects its analyte on a solid surface through an enzyme-linked reagent.
For test [2], the target named is HIV gp160(843-855) peptide (HIV). Briefly: ELISA, coated HIV gp160(843-855) peptide, control mouse serum, anti-mouse IgG1 or IgG2a detection.

In test [1], “Serum of mice given no immunogen (control of Table 22.1) (antibody)” registered an ELISA absorbance at 450 nm, serum dilution 1:20 (absorbance (450 nm)) of 0.105; an ELISA absorbance at 450 nm, serum dilution 1:60 (absorbance (450 nm)) of 0.72; an ELISA absorbance at 450 nm, serum dilution 1:180 (absorbance (450 nm)) of 0.049; an ELISA absorbance at 450 nm, serum dilution 1:540 (absorbance (450 nm)) of 0.036.

For “Serum of mice given no immunogen (control of Table 22.3) (antibody)”, in test [2], the ELISA absorbance at 450 nm, serum dilution 1:20 (absorbance (450 nm)) came out at 0.084; the ELISA absorbance at 450 nm, serum dilution 1:60 (absorbance (450 nm)) worked out at 0.045; the ELISA absorbance at 450 nm, serum dilution 1:180 (absorbance (450 nm)) amounted to 0.004; the ELISA absorbance at 450 nm, serum dilution 1:540 (absorbance (450 nm)) is -0.003.

In test [1], “Serum of mice given no immunogen (control of Table 22.2) (antibody)” came in with an ELISA absorbance at 450 nm, serum dilution 1:20 (absorbance (450 nm)) of 0.042; an ELISA absorbance at 450 nm, serum dilution 1:60 (absorbance (450 nm)) of 0.004; an ELISA absorbance at 450 nm, serum dilution 1:180 (absorbance (450 nm)) of -0.003; an ELISA absorbance at 450 nm, serum dilution 1:540 (absorbance (450 nm)) of 0.007. In test [1], the ELISA absorbance at 450 nm, serum dilution 1:1620 (absorbance (450 nm)) came to 0.006 and the ELISA absorbance at 450 nm, serum dilution 1:4860 (absorbance (450 nm)) turned out to be 0.005.
